In paper PMC6997208, “Conversion of walnut tyrosinase into a catechol oxidase by site directed mutagenesis” (Scientific Reports, 2020):
Residue numbers refer to the chain shown, from its start. Names and notes keep the numbering of the source.

B1: jrPPO1-wt (Juglans regia; V207I) (protein)
chain: DPVSAPELTLCSEADLPAGALPVNCCPPTSKKIKDFVLPSQNTPLRVRPAAHLVDNDYIAKYNKGIELMKSLPADDPRSFTQQANVHCAYCDGAYTQVGFPDLSLQIHECWLFFPFHRYYVYFFEKILGKLIGDPTFALPFWNWDSPPGMQLPSLYAVSNSAIYDPLRNANHQPPTIIDLDYGETSESTTTTDQVPSNLKIMYRQMVSGAKNPTLFFGSPYRAGDEPDPGAGTIESTPHNNIHLWTGDDTQPNIENMGNFYSAGRDPIFFAHHSNVDRMWTIWKTLGGKRKDITDPDWLNSSFFFYDENADPVRVKVKDCVDNTKLRYVYQDVEIPWLKTKPTPRKSRVKKVAKAFPAGHGGVAQAAETSSVKFPIVLDKVISTVVARPKKSRSKKEKDDEEEVLVIEGIEVERDIPVKFDVFINDEDDAPTGPGINTEFAGSFVSVPQQKQTKKKKTYLRIGISDLLEDLGAEDDDSVVVTLVPRFGKGKAIIGGIKIVLIG
notes: latent pro-enzyme (active domain + C-terminal domain) without transit peptide; E. coli BL21(DE3), pGEX-6P-1, N-terminal GST tag cut with HRV-3C protease; cloned from walnut leaf cDNA, Val107Ile versus FJ769240.1
B2: jrPPO1-wt (Juglans regia; N340K/V307I) (protein)
chain: B1 chain with I107V, V207I, N240K
notes: as for B1
B3: jrPPO1-wt (Juglans regia; L344R/V307I) (protein)
chain: B1 chain with I107V, V207I, L244R
notes: as for B1
B4: jrPPO1-wt (Juglans regia; F360G/V307I) (protein)
chain: B1 chain with I107V, V207I, F260G
notes: as for B1
B5: jrPPO1-wt (Juglans regia; L344R/N340T/V307I) (protein)
chain: B1 chain with I107V, V207I, N240T, L244R
notes: as for B1
B6: jrPPO1-wt (Juglans regia; L344R/N340K/V307I) (protein)
chain: B1 chain with I107V, V207I, N240K, L244R
notes: as for B1

substrate: NCCc1ccc(O)cc1; test: spectrophotometric quinone formation; format: biochemical, Juglans regia; details: 50 mM sodium phosphate pH 6.0, 2 mM SDS as activator, 25 °C, monophenolase
From the text: (§1) spectrophotometric quinone formation on jrPPO1-wt

Q: Which Km does the source give for B1 here?
A: 0.451 ± 0.084 mM

Q: And the kcat?
A: 24.7 ± 1.5 s⁻¹

Q: And the kcat/Km?
A: 55000 ± 11000 M⁻¹ s⁻¹

Q: Which Km does the source give for B2 here?
A: 8.2 ± 1.4 mM

Q: What about the kcat of the same protein?
A: 0.0542 ± 0.0034 s⁻¹

Q: What about the kcat/Km of the same protein?
A: 6.6 ± 1.2 M⁻¹ s⁻¹

Q: What does the source list for B3?
A: Km: 2.68 ± 0.53 mM; kcat: 1.62 ± 0.09 s⁻¹; kcat/Km: 600 ± 120 M⁻¹ s⁻¹

Q: Which results are given for B4?
A: Km: 3.05 ± 0.72 mM; kcat: 0.323 ± 0.025 s⁻¹; kcat/Km: 103 ± 26 M⁻¹ s⁻¹

substrate: NCCc1ccc(O)c(O)c1; test: spectrophotometric quinone formation; format: biochemical, Juglans regia; details: 50 mM sodium phosphate pH 6.0, 2 mM SDS as activator, 25 °C, diphenolase
From the text: as §1

Q: How did the Km turn out when B1 was run?
A: 0.75 ± 0.13 mM

Q: What about the kcat of the same protein?
A: 92.5 ± 7.8 s⁻¹

Q: And the kcat/Km?
A: 123000 ± 24000 M⁻¹ s⁻¹

Q: How did the Km turn out when B2 was run?
A: 19.8 ± 4.7 mM

Q: What about the kcat of the same protein?
A: 2.51 ± 0.4 s⁻¹

Q: And the kcat/Km?
A: 132 ± 97 M⁻¹ s⁻¹

Q: For B3, which Km is on record?
A: 2.36 ± 0.41 mM

Q: What about the kcat of the same protein?
A: 24.9 ± 1.6 s⁻¹

Q: What about the kcat/Km of the same protein?
A: 10600 ± 2000 M⁻¹ s⁻¹

Q: Which Km does the source give for B4 here?
A: 1.2 ± 0.4 mM

Q: And the kcat?
A: 7.36 ± 0.98 s⁻¹

Q: And the kcat/Km?
A: 5900 ± 2200 M⁻¹ s⁻¹

Q: Which Km does the source give for B5 here?
A: 6.6 ± 1.5 mM

Q: What about the kcat of the same protein?
A: 0.789 ± 0.079 s⁻¹

Q: What about the kcat/Km of the same protein?
A: 122 ± 26 M⁻¹ s⁻¹

Q: Which results are given for B6?
A: Km: 6.8 ± 1.3 mM; kcat: 0.029 ± 0.002 s⁻¹; kcat/Km: 4.28 ± 0.85 M⁻¹ s⁻¹

substrate: N[C@@H](Cc1ccc(O)c(O)c1)C(=O)O; test: spectrophotometric quinone formation; format: biochemical, Juglans regia; details: 50 mM sodium phosphate pH 6.0, 2 mM SDS as activator, 25 °C, diphenolase
From the text: as §1

Q: What does the source list for B1?
A: Km: 6.2 ± 1.0 mM; kcat: 111 ± 8.8 s⁻¹; kcat/Km: 18100 ± 3400 M⁻¹ s⁻¹

Q: How did the Km turn out when B5 was run?
A: 13.1 ± 3.3 mM

Q: And the kcat?
A: 0.18 ± 0.027 s⁻¹

Q: What about the kcat/Km of the same protein?
A: 12.9 ± 4 M⁻¹ s⁻¹

Q: With B6 as the protein, how does the Km read?
A: 16.5 ± 4.8 mM

Q: And the kcat?
A: 0.104 ± 0.019 s⁻¹

Q: What about the kcat/Km of the same protein?
A: 6 ± 2.1 M⁻¹ s⁻¹

substrate: N[C@@H](Cc1ccc(O)cc1)C(=O)O; test: spectrophotometric quinone formation; format: biochemical, Juglans regia; details: 50 mM sodium phosphate pH 6.0, 2 mM SDS as activator, 25 °C, monophenolase
From the text: as §1

Q: With B1 as the protein, how does the Km read?
A: 1.42 ± 0.37 mM

Q: And the kcat?
A: 6 ± 1.1 s⁻¹

Q: And the kcat/Km?
A: 4300 ± 1400 M⁻¹ s⁻¹
